In publication PMC314469, “Protein Interaction Networks by Proteome Peptide Scanning” (PLoS Biology, 2004) one finds normalised SPOT signal, Boehringer light units (BLU); mean over the file's lines of this peptide data, which are given here for 15 molecules.

The target of test [1] is endophilin SH3 (SH3G2_HUMAN), Q99962. Briefly: SPOT array.
For test [2], the target named is T1, amphyphisin SH3 (AMPH_HUMAN), P49418.
T1 chain: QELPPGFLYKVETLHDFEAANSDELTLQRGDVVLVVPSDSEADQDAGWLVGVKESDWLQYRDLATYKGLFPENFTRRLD
The test is described as follows: SPOT array.

Regarding SPQEPKRPSQLPSP [O14686 4038-4051], the normalised SPOT signal, Boehringer light units (BLU); mean over the file's lines of this peptide came out at 33 in test [1] and 52.9 in test [2].

As to SPEAPRRPKQRPAP [O00294 24-37], the normalised SPOT signal, Boehringer light units (BLU); mean over the file's lines of this peptide amounted to 319 in test [1] and 62.1 in test [2].

For the molecule SPDSLSRPRRTVFT [Q9P217 544-557], the normalised SPOT signal, Boehringer light units (BLU); mean over the file's lines of this peptide in test [1] turned out to be 90.9; in test [2], 482.

Regarding SPGFPARPGRGRPY [Q9UQ90 30-43], the normalised SPOT signal, Boehringer light units (BLU); mean over the file's lines of this peptide in test [1] worked out at 754; in test [2] it was 568.

In the case of SPKSPGRPWKSVSE [P01042 611-624], the normalised SPOT signal, Boehringer light units (BLU); mean over the file's lines of this peptide in test [1] turned out to be 117; in test [2], 228.

Turning to SPPELKRPRLDENK [Q13112 538-551], the normalised SPOT signal, Boehringer light units (BLU); mean over the file's lines of this peptide came to 77.2 in test [1] and 51 in test [2].

As for SPGVLRRPRRRPAA [Q9Y469 13-26], the results for the normalised SPOT signal, Boehringer light units (BLU); mean over the file's lines of this peptide in test [1] and in test [2] were 190 and 2430, respectively.

Take SPIKPKRPFVESNV [Q9ULS2 141-154]: the normalised SPOT signal, Boehringer light units (BLU); mean over the file's lines of this peptide in test [1] came out at 2110; in test [2], 120.

With SPPVPPRPPSSGPP [Q9UKN7 661-675], the normalised SPOT signal, Boehringer light units (BLU); mean over the file's lines of this peptide in test [1] worked out at 1880; in test [2], 1270.

Turning to SPPSPDRPPHSQTS [Q03164 2117-2131], the normalised SPOT signal, Boehringer light units (BLU); mean over the file's lines of this peptide in test [1] was found to be 69.3; in test [2], 56.4.

SPGPPYRPPSQRLR [Q8WVQ2 69-83]: the normalised SPOT signal, Boehringer light units (BLU); mean over the file's lines of this peptide in test [1] amounted to 5840; in test [2] it was 547.

Regarding SSGSPDRPGRRGRR [Q9BXQ6 174-187], the normalised SPOT signal, Boehringer light units (BLU); mean over the file's lines of this peptide was determined as 150 in test [1] and 3220 in test [2].

Regarding SPRALWRPPRRRTQ [O94807 430-443], the normalised SPOT signal, Boehringer light units (BLU); mean over the file's lines of this peptide in test [1] was 1210; in test [2], 1010.

As to SPQAPRRPLPQVAT [Q13421 406-419], the normalised SPOT signal, Boehringer light units (BLU); mean over the file's lines of this peptide in test [1] was 437; in test [2], 587.

As to SPDKFKRPTPPPSP [Q16204 419-432], the normalised SPOT signal, Boehringer light units (BLU); mean over the file's lines of this peptide is 35.9 in test [1] and 15.7 in test [2].
